We go through 19 molecules from patent US20250257346A1.

Data set [1] concerns the target Trastuzumab. Nature of the data set: cell-based or functional assay.
Data set [2] deals with canine IgG.
Data set [3] concerns the target monkey IgG.
The target of data set [4] is rabbit IgG.
In data set [5] the target is human IgG.
For data set [6], the target named is mouse IgG.
Data set [7] addresses rat IgG.
The target of data set [8] is human IVIg (intravenous immunoglobulin).
Data set [9] deals with pig serum IgG.
The target in data set [10] is IgG1 in human serum.
Data set [11] concerns the target IgG1 in mouse serum.

Consider “IdeE C-terminal truncated mutant WT_delC5 (enzyme)”, for which, in [1], the cleavage of human IgG1, SDS-PAGE (fold of wild-type IdeE) was above 2.

In turn, IdeE mutant T24S (enzyme) gave a Fold of activity relative to wild-type (cleavage of human IgG1, ELISA) in data set [1] of 2.18 fold.

As for IdeE mutant T8E (enzyme), in data set [1], the Fold of activity relative to wild-type (cleavage of human IgG1, ELISA) was found to be 2.09 fold.

In data set [1], IdeE mutant T8D (enzyme) yielded a Fold of activity relative to wild-type (cleavage of human IgG1, ELISA) of 2.21 fold and a cleavage of human IgG1, SDS-PAGE (fold of wild-type IdeE) above 2.

Regarding IdeE mutant T24A (enzyme), in data set [1], the Fold of activity relative to wild-type (cleavage of human IgG1, ELISA) was found to be 2.23 fold and the cleavage of human IgG1, SDS-PAGE (fold of wild-type IdeE) is above 2.

With IdeE mutant A59L (enzyme), in [1], the Fold of activity relative to wild-type (cleavage of human IgG1, ELISA) turned out to be 2.41 fold and the cleavage of human IgG1, SDS-PAGE (fold of wild-type IdeE) is above 2.

In the case of IdeE mutant A10R (enzyme), the Fold of activity relative to wild-type (cleavage of human IgG1, ELISA) in data set [1] stood at 2.2 fold.

Molecule IdeE mutant A59I (enzyme) yielded a Fold of activity relative to wild-type (cleavage of human IgG1, ELISA) in data set [1] of 2.31 fold.

In data set [1], IdeE mutant T8Y (enzyme) gave a Fold of activity relative to wild-type (cleavage of human IgG1, ELISA) of 2.3 fold.

The molecule IdeE mutant A10K (enzyme) registered a Fold of activity relative to wild-type (cleavage of human IgG1, ELISA) in data set [1] of 1.99 fold.

In turn, “IdeE C-terminal truncated mutant WT_delC10 (enzyme)” yielded a cleavage of human IgG1, SDS-PAGE (fold of wild-type IdeE) in data set [1] above 2.

For IdeE mutant R280K (enzyme), the Fold of activity relative to wild-type (cleavage of human IgG1, ELISA) in [1] worked out at 2.2 fold.

Turning to IdeE mutant T24G (enzyme), the Fold of activity relative to wild-type (cleavage of human IgG1, ELISA) in data set [1] is 2.09 fold.

In [1], IdeE mutant T8W (enzyme) had a Fold of activity relative to wild-type (cleavage of human IgG1, ELISA) of 2.58 fold and a cleavage of human IgG1, SDS-PAGE (fold of wild-type IdeE) above 2.

In data set [1], IdeE mutant A59V (enzyme) registered a Fold of activity relative to wild-type (cleavage of human IgG1, ELISA) of 2.68 fold and a cleavage of human IgG1, SDS-PAGE (fold of wild-type IdeE) above 2.

On to IdeE mutant E97D (enzyme), for which, in [1], the Fold of activity relative to wild-type (cleavage of human IgG1, ELISA) was 2 fold and the cleavage of human IgG1, SDS-PAGE (fold of wild-type IdeE) is above 2.

With IdeE mutant R280H (enzyme), in data set [1], the Fold of activity relative to wild-type (cleavage of human IgG1, ELISA) was 2.3 fold and the cleavage of human IgG1, SDS-PAGE (fold of wild-type IdeE) is above 2.

B1: IdeE mutant IDEEV2 (protein)
chain: ITSVWTKGVTPLTPEQFRYNNEDVIHAPYLAHQGWYDITKAFDGKDNLLCGAATAGNMLHWWFDQNKTEIEAYLSKHPDKQKIIFNNQELFDLKAAIDTKDSQTNSQLFNYFRDKAFPNLSARQLGVMPDLVLDMFINGYYLNVFKTQSTDVNRPYQDKDKRGGIFDAVFTRGDQTTLLTARHDLKNKGLNDISTIIKQELTEGRALALSHTYANVSISHVINLWGADFNAEGNLEAIYVTDSDANASIGMKKYFVGINAHGHVAISAKKIEGENIGAQVLGLFTLSSGKDIWQKLS
On to B1, for which the “digestion of purified IgG, non-reduction SDS-PAGE (1:200)” value in data set [2] was “IDEEV2 can in species-specificity effectively digest IgG in rabbits, dogs, monkeys, and humans”; in data set [3], “IDEEV2 can in species-specificity effectively digest IgG in rabbits, dogs, monkeys, and humans”; in data set [4], “IDEEV2 can in species-specificity effectively digest IgG in rabbits, dogs, monkeys, and humans”; in data set [5], “IDEEV2 can in species-specificity effectively digest IgG in rabbits, dogs, monkeys, and humans”.

B2: IdeE combined mutant E97D_del18 (protein)
chain: ITSVWTKGVTPLTPEQFRYNNEDVIHAPYLAHQGWYDITKAFDGKDNLLCGAATAGNMLHWWFDQNKTEIEAYLSKHPDKQKIIFNNQELFDLKAAIDTKDSQTNSQLFNYFRDKAFPNLSARQLGVMPDLVLDMFINGYYLNVFKTQSTDVNRPYQDKDKRGGIFDAVFTRGDQTTLLTARHDLKNKGLNDISTIIKQELTEGRALALSHTYANVSISHVINLWGADFNAEGNLEAIYVTDSDANASIGMKKYFVGINAHRHVAISAKKIEGENIGAQVLGLFTLSSGKDIWQKLSHHHHHH
As to B2, the “cleavage of serum IgG, SDS-PAGE” value in data set [6] is “almost no cleavage effect for rat and mouse serum IgG”; in data set [2], “can effectively cleave rabbit, canine, and monkey serum IgG”; in data set [7] it was “almost no cleavage effect for rat and mouse serum IgG”; in data set [3], “can effectively cleave rabbit, canine, and monkey serum IgG”; in [9], “poor cleavage effect for pig serum IgG”; in data set [4] it was “can effectively cleave rabbit, canine, and monkey serum IgG, with the best cleavage effect for rabbit serum IgG”. The “cleavage, SDS-PAGE” value in data set [2] is “E97D_del18 could effectively cleave canine IgG, rabbit IgG and mouse IgG2a”; in data set [4], “E97D_del18 could effectively cleave canine IgG, rabbit IgG and mouse IgG2a”. In addition, in data set [8], the “cleavage of human IVIg in mouse serum and plasma, SDS-PAGE” value was “E97D_del18 is effective in cleaving human IVIg in both mouse serum and plasma”. In [10], the “cleavage in human serum, SDS-PAGE” value is recorded as “E97D_del18 cleaves in human serum to produce an apparent 25 kD Fc fragment”. For the same molecule, the “cleavage in mouse serum, SDS-PAGE” value in data set [11] was “little or no cleavage activity against IgG1 in mouse serum”.
